Data from patent US6255062A, “β-type DNA polymerases” (priority 1994, dated 2001).

Assays:
[1] = target: T1, yeast β-type DNA polymerase (Saccharomyces cerevisiae, UniProt P25615); assay: Inhibitor sensitivity of DNA polymerase activity in 12CA5 immunoprecipitates; format: biochemical; conditions: for Polβ Activity (1): experiment 1; for Polβ Activity (2): experiment 2
T1 construct: made in house; host or cells: Saccharomyces cerevisiae BJ5459 carrying pGAL18HAβ, galactose induced; 12CA5 immunoprecipitate on protein A beads

[2] = tested on: DNA polymerases α, δ and ε; conditions: cited from earlier work
[3] = tested on: activated DNA or poly dA-oligo dT primer-template; assay: DNA polymerase activity in 12CA5 immunoprecipitates; format: biochemical; conditions: for Polβ Activity (1): experiment 1; for Polβ Activity (2): experiment 2
[4] = tested on: dA-dT and rA-dT primer-templates; assay: rNTP incorporation and reverse transcriptase activities of immunoprecipitated polymerase; format: biochemical
[5] = tested on: poly dT labeled at the 3'-end with terminal transferase; assay: 3' exonuclease activity; format: biochemical; conditions: data not shown
[6] = dA-dT (20:1), dTTP (10 mM)/ddTTP (10 mM)
[7] = primer-template DNA, Aphidicolin (30 μg/ml), compare dCTP (10 mM) control

## Cc1cn([C@H]2CC[C@@H](COP(=O)(O)OP(=O)(O)OP(=O)(O)O)O2)c(=O)[nH]c1=O [ddTTP, dideoxythymidine triphosphate]
[1]; [6]
  Polβ Activity (1): 11
  Polβ Activity (2): 6
[1]; levels used in Table 2
  effect of ddTTP on yeast β-type DNA polymerase: inhibited
[2]; ddTTP at the levels used here
  inhibition of DNA polymerase α, δ and ε: does not inhibit

## CCN1C(=O)C=CC1=O [NEM, N-ethylmaleimide]
[1]; 10 mM
  sensitivity of yeast β-type DNA polymerase to N-ethylmaleimide: sensitive
[1]; primer-template DNA, NEM (10 mM)
  Polβ Activity (1): 8

## C[C@@]1(CO)[C@H](O)CC[C@@]2(C)[C@H]1CC[C@H]1C[C@@H]3C[C@@]12CC[C@]3(O)CO [Aphidicolin, aphidicolin]
[1]; 30 μg/ml
  sensitivity of yeast β-type DNA polymerase to aphidicolin: resistant
[1]; [7]
  Polβ Activity (1): 162
  Polβ Activity (2): 78
[2]; aphidicolin 30 μg/ml
  inhibition of DNA polymerases α, δ and ε: completely inhibits

B1: HA polβ: β-type DNA polymerase from S. cerevisiae (POL4, SEQ ID NO:2) tagged at NH2 terminus with influenza hemagglutinin epitope (protein)
chain: MSLKGKFFAFLPNPNTSSNKFFKSILEKKGATIVSSIQNCLQSSRKEVIILIEDSFVDSDMHLTQKDIFQREAGLNDVDEFLGKIEQSGIQCVKTSCITKWVQNDKFAFQKDDLIKFQPSIIVISDNADDGQSSTDKESEISTDVESERNDDSNNKDMIQASKPLKRLLQEDKGRASLVTDKTKYKNNELIIGALKRLTKKYEIEGEKFRARSYRLAKQSMENCDFNVRSGEEAHTKLRNIGPSIAKKIQVILDTGVLPGLNDSVGLEDKLKYFKNCYGIGSEIAKRWNLLNFESFCVAAKKDPEEFVSDWTILFGWSYYDDWLCKMSRNECFTHLKKVQKALRGIDPECQVELQGSYNRGYSKCGDIDLLFFKPFCNDTTELAKIMETLCIKLYKDGYIHCFLQLTPNLEKLFLKRIVERFRTAKIVGYGERKRWYSSEIIKKFFMGVKFSPRELEELKEMKNDEGTLLIEEEEEEETKLNPIDQYMSLNAKDGNYCRRLDFFCCKWDELGAGRIHYTGSKEYNRWIRILAAQKGFKLTQHGLFRNNILLESFNERRIFELLNLKYAEPEHRNIEWEKKTA
modifications: N-terminal HA epitope tag
[3]
  DNA polymerase activity relative to controls: 10 fold
  synthesis on the poly dA template alone (primer requirement): No synthesis was observed
[3]; […], Complete
  Polβ Activity (1): 101
[3]; […], dCTP (10 mM)
  Polβ Activity (1): 212
  Polβ Activity (2): 106
[3]; dA-dT (10:1), Complete
  Polβ Activity (1): 105
  Polβ Activity (2): 244
[3]; dA-dT (20:1), Complete
  Polβ Activity (1): 293
  Polβ Activity (2): 411
[3]; dA-dT (20:1), dTTP (10 mM)
  Polβ Activity (1): 95
  Polβ Activity (2): 102
[4]
  processivity: processivity is low
[4]; dA-dT, 3H NTP T, Mg, Experiment 1
  Activity: 480 pmol
[4]; dA-dT, 3H NTP T, Mn, Experiment 1
  Activity: 769 pmol
[4]; dA-dT, 3H NTP U, Mg, Experiment 1
  Activity: 110 pmol
[4]; dA-dT, 3H NTP U, Mg, Experiment 2
  Activity: 187 pmol
[4]; dA-dT, 3H NTP U, Mn, Experiment 1
  Activity: 202 pmol
[4]; dA-dT, 3H NTP U, Mn, Experiment 2
  Activity: 209 pmol
[4]; in the presence of either Mg++ or Mn++
  reverse transcriptase activity: significant reverse transcriptase activity
[4]; rA-dT, 3H NTP T, Mg, Experiment 1
  Activity: 65 pmol
[4]; rA-dT, 3H NTP T, Mg, Experiment 2
  Activity: 81 pmol
[4]; rA-dT, 3H NTP T, Mn, Experiment 1
  Activity: 191 pmol
[4]; rA-dT, 3H NTP T, Mn, Experiment 2
  Activity: 59 pmol
[4]; rA-dT, 3H NTP U, Mg, Experiment 2
  Activity: 32 pmol
[4]; rA-dT, 3H NTP U, Mn, Experiment 2
  Activity: 55 pmol
[5]
  3' exonuclease activity: no 3' exonuclease activity
